The series in a line: label from the status in PepcDB records.
On to “MLPDVFRADTGSRSLIQAQSDAQAVLTWLAEHADRPATLAAYRKEAERLLLWLAPRRQTLAQVKREDVLDYRRFLASPHPAEQWLGPARPRSHPDWKPFSKPLSPASVEHSLTVLGALFAYLNDAGYLNGNPFKLLRRRGARKSAQEIERFLDADCWRHLQATLNGLPRGSDREIRHAERALWLFTLLYLTGARRAEAAAARACDLARRNGNWWWHVVGKGGVSARIPLSDELMDALARYRLSLGLPPQPAADEDTPLVCRVGSKGQAKPLSDKAIYLVCKEVFGRAQAAAPNEDIRAKLRAASTHWLRHTAASHQLEAGVPLLLVSQNLRHASIQTTRRYLHSEEDARHEASRLHKLKRDS”, for which the protein production entry is on record as “failed”.

Consider “MLPHSGRMVLIDRITRYGDDFVEAGAQVKPDHILLAGGMLPYTAFIELMAQAVGAYAGIQARKNARPVRLGFLPGTRKLEIFAQSVPVGTHLPATAHMSIQDAGVWACPTANCVGRMRRKLRPEHSFQTAFWHAPHSTCTAPNTMTEQLTPSEQAHIRRTTMTETVLITGSNRGIGKAAALEHHHHHH”, for which the protein production result is “failed”.

For “MLPKRQLFLDRLNQALAWSQFSGVPGALLLIDLGLPAHLDGSPSLSPDAEENLEIIANRLQAYVRPHETLAHLNHHQFGLLLLDPDVQLRAEERAHGIQTLIRDRLAGFEGGAHIGIVPLTPETPATVLLQAAEAAAMTARSQQQGHLSLEASLEHHHHHH”, the protein production result is given as “not failed”.

With “MLPLNDYLQPFGLVIKPMQEDLTPYLGIKVKSEAGQEKITFVAAHSPAAMAGISPQDLLLAINGVRVGAEQLSLRLKDYQANDMIQLTVFHQDLLRTVDVVLASPQANRYEVVPIADPSDSQLEHHHHHH”, the protein production entry is given as “not failed”.

On to “MLPLTLIAILSLGIVEGLDPYKGLLFSYYFYSFRKVKESYVVPIVSTITYYIVGILIVEWLNISDNILTRGIMFSLLLVHVLIKLVIGKVLHYPSNMRPKILNVIQWSAINSIIQMNFIILLTLSILSKPSLILLPITVIIVRETTYCLSVKNNKILLKLTEYNFDYFYLITVLLLGIVIILPLL”, for which the protein production result is reported as “failed”.

Take “MLPMLLWLVANLFLAPAAEGFHGMNKTNTWAVILSSSRYFFNLRHTTNALAMYHLCRKHGMDDDHILVFLSDSYACDPRKPNPATIYGAPAQAEQPNLYGCNIRVDYASYDVGVRRFLGVLQGRYDENTPPSRRLDTDENSNIIIYAAGHSAEKFFKFQDSEFMSSTDIADTLMMMWEQRRYRKLVFLVDTCRALSLCLEIKAPNVVCLASSEAHLDSYSHHLDPPSGFTVITRWTFEFLEVLKDSKCRPENGEVTLLQKSFYDFNYGPERLSLPQPLSEPAHFDAVNRPNAIREWKMDEFFCEQDRDKIPVELRYDLF”: the protein production entry is “failed”.

For “MLPPPPSASPAARENTDPGGHRADSGVSYSKIDPVGTFVRLLGLIAPAWQAVLGATLLGSGTIASNIGLMATAAFLIASAALHPPAGKLMLAIVGVRFFGITRAVCRYLERYVNHSITLGILGRLRVAFYRTLEPLIPAGLQGHHSGDLLSRAVADVATLENFYLRVLNPPLVALPVAAGVFLFLAHFGRTLALAWMGAFLAAGVIFPVGVTIVGRGVMRRQGEARAALNTALVDTVQGLADILVFDHGRQQQEYIATLDRQYLHLQGRKAGLNGLANALTSLASNLALWAVLVLAIPLVNRGQIDGVYLAMLALTAAAALEAAKPLPMLFPHLEGSLAAARRIFALSDTRPAGDPAGPVPHPRDFSLRVQGLRFRYGPGEPPALDGIDFDVPSGARIAIVGPSGAGKSTLVNLLLRFWDYEEGAILLGGYDLKAYPPEELQRFIGVVAQPTHLFHATIAENLLLARPDATREEMERAAREARLHEFIQVLPRGYDTLIGEEGFKLSGGQRQRLAIARALLQNAPILILDEATTGLDAVTEREVMDSIRHLMEGRTTLVITHRLVGLEDMDKILVLDRGRLVQQGRHAELLRQEGLYRHLWQLQQEALP”, the protein production entry was “failed”.

In the case of “MLPPYNYMDNGTLKGISIDLLEAITEKMGKKVTREEIHLVSWTEGYQAALTRNNTVLFVTARTPEREQSFKWVGPIYSDKYVLFAKRDPGVTIDGPEDLKEYRIGVISDDVAAQQLLNIGLEHHHHHH”, the protein production result was “not failed”.

Consider “MLQKPVQLLLWVAICLLVLLTVYVFFMLDMLWSPFWLVIKTIFIPLIISIFISYLLLPVTEWLHGKGLPRTLSILVIYVLFFGGIGWALYKGVPVLIVQLTDLSENIPMFAETYNGLLLHVHNHTDDWPDGMHHRIDKMIRQTEAFFAGTIEGAISGIRNVLDYFLIAATIPFLVFYMVKDIELMKKTVWYLTPKSWRKRGSAFLRDVDDSLGDYIRGQLLVCLILGVIAGISFWVFGLPYPLILGLISGVTNVIPYFGPFIGAVPALLIAMTISVKAVLVVVITVFILQFMEGNILSPFIVGRSLKMHPVVIMLALLAGGELAGIVGMILAVPATAVLKVMMIHFLRMRTEH”, for which the protein production result was “not failed”.

Source of the values: a protein production outcome set (Wang et al. 2014).
